Experimental data reported in article PMC4442619.

Experiments:
[1] = target: C-terminal region of RING1B (C-RING1B), residues 222–336, with C-terminal hexahistidine tag (human) (UniProt Q99496); test: SPR
[2] = target: RING1B C-terminal domain (C-RING1B) (Homo sapiens) (UniProt Q99496); conditions: cited from earlier work
[3] = target: C-terminal region of RING1B (C-RING1B), residues 222–336, with C-terminal hexahistidine tag (human) (UniProt Q99496); test: native gel or EMSA
[4] = target: cbx7 cbox domain with C-terminal hexahistidine tag (human); test: AUC

Molecule | Kd [1] [nM] | also measured
MBP–cbx6 cbox domain fusion protein (from UniProt O95503 1-412) (domain or fragment) | 180 | –
RING1B C-terminal domain (C-RING1B) (from UniProt Q99496) | – | Kd [2]: 200000 nM
cbx6 cbox domain (domain or fragment) | – | stoichiometry N [3]: 1
C-RING1B (residues 222–336) with C-terminal SRD sequence, coexpressed with the cbx7 cbox domain (domain or fragment) MEKTRGASEIELVFRPHPTLMEKDDSAQTRYIKTSGNATVDHLSKYLAVRLALEELRSKGESNQMNLDTASEKQYTIYIATASGQFTVLNGSFSLELVSEKYWKVNKPMELYYAPTKEHKSRD | – | stoichiometry N [4]: 1

Now from value to molecule, other results behind:

Kd [1] [nM] | Molecule | also measured
38 | MBP–Drosophila Pc cbox domain fusion protein (from UniProt P26017 1-390) (domain or fragment) | –
9.2 | MBP–cbx7 cbox domain fusion protein (from UniProt O95931 1-251) (domain or fragment) | –
180 | MBP–cbx8 cbox domain fusion protein (from UniProt Q9HC52 1-389) (domain or fragment) | –
